Measurements as given in patent publication US20190359653A1 (Genentech, published 2019).
Ends that are not written are not given here.

B1: SEQ ID NO 33 (peptide)
peptide: FDFCSVMPQFIYCPGD
modifications: not fully specified; cysteine pairing not given here
notes: cyclic peptide library; also called Fz7-20

Legend:
[1] = target: T1, FZD7 receptor of HEK293-TB cells (human, UniProt O75084 33-574); assay: cell-based or functional assay
hFZD8 CRD-Fc = target: T2, hFZD8 CRD-Fc (human, UniProt Q9H461 28-158, limits assumed); assay: spot phage ELISA
T2 construct: domain: CRD; bought (R&D Systems); not shown: Fc part
T2 sequence (looked up): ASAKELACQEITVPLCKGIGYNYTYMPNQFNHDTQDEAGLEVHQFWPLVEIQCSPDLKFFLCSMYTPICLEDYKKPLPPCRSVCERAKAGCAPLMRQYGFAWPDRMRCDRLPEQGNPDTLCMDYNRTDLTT

hFZD7 CRD-Fc = hFZD7 CRD-Fc (human, UniProt O75084 33-185); assay: spot phage ELISA
[2] = target: T1, FZD7 receptor of HEK293-TB cells; assay: cell-based or functional assay; remark: listed apart in the source
[3] = target: T1, FZD7 receptor of HEK293-TB cells; assay: cell-based or functional assay; remark: listed apart in the source

Binder	signal:noise ratio (hFZD8 CRD-Fc)	signal:noise ratio (hFZD7 CRD-Fc)	further results
Ac-LPSDNLEFWCHVMY-NH2 [Fz7-21N]			IC50 (µM), Wnt3a-mediated β-catenin signaling, TOPbrite reporter in HEK293-TB cells (50 ng/mL mWnt3a) [1]: 0.41 µM
TSDFSWCLSWCDLIFW (not fully specified; cysteine pairing not given here, cyclic peptide library) [SEQ ID NO 35]	1.27	28.4	
FDFCSVMPHFIYCPGD (not fully specified; cysteine pairing not given here, cyclic peptide library) [SEQ ID NO 37]	1.12	27.5	
B1	2.1	26	
FDFCTVMPHFIYCPGD (not fully specified; cysteine pairing not given here, cyclic peptide library) [SEQ ID NO 36]	2.01	27.4	
Ac-LPSDDLEFWCHVMY-NH2 [Fz7-21]			IC50, Wnt1-stimulated β-catenin signaling, HEK293-TB cells transfected with 5 ng plasmid (FIG. 2C) [2]: 1090 nM; IC50, Wnt1-stimulated β-catenin signaling, HEK293-TB cells transfected with 25 ng plasmid (FIG. 2C) [2]: 2660 nM; IC50, Wnt3a-stimulated β-catenin signaling, HEK293-TB cells transfected with 5 ng pCDNA3.2-Wnt3a (FIG. 2B) [2]: 330 nM; IC50, Wnt3a-stimulated β-catenin signaling, HEK293-TB cells transfected with 25 ng pCDNA3.2-Wnt3a (FIG. 2B) [2]: 419 nM; IC50, Wnt3a-stimulated β-catenin signaling, HEK293-TB cells, recombinant mWnt3a 50 ng/mL (FIG. 2A) [2]: 93.7 nM; IC50 (µM), Wnt3a-mediated β-catenin signaling, TOPbrite reporter in HEK293-TB cells (50 ng/mL mWnt3a) [1]: 0.1 µM; IC50 (nM), TOPbrite reporter assay in HEK293-TB cells stimulated with mWnt3a (50 ng/mL) [3]: 465 nM; Reduction in fold potency vs. dimer [3]: 42 fold
SSDFSGCLSWCDLIFG (not fully specified; cysteine pairing not given here, cyclic peptide library) [SEQ ID NO 32]	1.39	28.4	
HLSDVFCSDWCDLVFW (not fully specified; cysteine pairing not given here, cyclic peptide library) [SEQ ID NO 38]	1.28	17.5	
